Experimental data: patent publication US20200270325A1 (Merck Sharp & Dohme, published 2020)
Numbered stars: 1 amine (or outer) side, 2 acyl side, 3 side chain; on linkers, the order of the positions; unused ones are H or OH. Square brackets hold non-standard residues; d marks the D form. Side chains are listed from the residue outwards. Ends that are not written are not given here. * marks the point of attachment. C18 diacid = O=C(O)CCCCCCCCCCCCCCCCC(=O)*; γGlu = O=C(O)[C@H](CCC(=O)[*:2])N[*:1]; Met(O2) = CS(=O)(=O)CC[C@H](N)C(=O)O; αMeD = C[C@](N)(CC(=O)O)C(=O)O; Nle = CCCC[C@H](N)C(=O)O; AEEA = NCCOCCOCC(=O)O; Aib = CC(C)(N)C(=O)O

B1: TP702 (peptide)
peptide: H[Aib]QGTFTSDYSKYLDARAAQEFVK([AEEA-AEEA-γGlu-C18 diacid])WL[Met(O2)]DT-NH2
modifications: N-terminus assumed
SMILES: CC(C)C[C@H](NC(=O)[C@H](Cc1ccc(O)cc1)NC(=O)[C@H](CCCCN)NC(=O)[C@H](CO)NC(=O)[C@H](Cc1ccc(O)cc1)NC(=O)[C@H](CC(=O)O)NC(=O)[C@H](CO)NC(=O)[C@@H](NC(=O)[C@H](Cc1ccccc1)NC(=O)[C@@H](NC(=O)CNC(=O)[C@H](CCC(N)=O)NC(=O)C(C)(C)NC(=O)[C@@H](N)Cc1c[nH]cn1)[C@@H](C)O)[C@@H](C)O)C(=O)N[C@@H](CC(=O)O)C(=O)N[C@@H](C)C(=O)N[C@@H](CCCNC(=N)N)C(=O)N[C@@H](C)C(=O)N[C@@H](C)C(=O)N[C@@H](CCC(N)=O)C(=O)N[C@@H](CCC(=O)O)C(=O)N[C@@H](Cc1ccccc1)C(=O)N[C@H](C(=O)N[C@@H](CCCCNC(=O)COCCOCCNC(=O)COCCOCCNC(=O)CC[C@H](NC(=O)CCCCCCCCCCCCCCCCC(=O)O)C(=O)O)C(=O)N[C@@H](Cc1c[nH]c2ccccc12)C(=O)N[C@@H](CC(C)C)C(=O)N[C@@H](CCS(C)(=O)=O)C(=O)N[C@@H](CC(=O)O)C(=O)N[C@H](C(N)=O)[C@@H](C)O)C(C)C
B2: TP703 (peptide)
peptide: H[Aib]QGTFTSEYSKKLDARAAK([AEEA-AEEA-γGlu-C18 diacid])DFVQWL[Met(O2)]DT-NH2
modifications: N-terminus assumed
SMILES: CC(C)C[C@H](NC(=O)[C@H](CCCCN)NC(=O)[C@H](CCCCN)NC(=O)[C@H](CO)NC(=O)[C@H](Cc1ccc(O)cc1)NC(=O)[C@H](CCC(=O)O)NC(=O)[C@H](CO)NC(=O)[C@@H](NC(=O)[C@H](Cc1ccccc1)NC(=O)[C@@H](NC(=O)CNC(=O)[C@H](CCC(N)=O)NC(=O)C(C)(C)NC(=O)[C@@H](N)Cc1c[nH]cn1)[C@@H](C)O)[C@@H](C)O)C(=O)N[C@@H](CC(=O)O)C(=O)N[C@@H](C)C(=O)N[C@@H](CCCNC(=N)N)C(=O)N[C@@H](C)C(=O)N[C@@H](C)C(=O)N[C@@H](CCCCNC(=O)COCCOCCNC(=O)COCCOCCNC(=O)CC[C@H](NC(=O)CCCCCCCCCCCCCCCCC(=O)O)C(=O)O)C(=O)N[C@@H](CC(=O)O)C(=O)N[C@@H](Cc1ccccc1)C(=O)N[C@H](C(=O)N[C@@H](CCC(N)=O)C(=O)N[C@@H](Cc1c[nH]c2ccccc12)C(=O)N[C@@H](CC(C)C)C(=O)N[C@@H](CCS(C)(=O)=O)C(=O)N[C@@H](CC(=O)O)C(=O)N[C@H](C(N)=O)[C@@H](C)O)C(C)C
B3: TP704 (peptide)
peptide: H[Aib]QGTFTSDYSKYLDARAAK([AEEA-AEEA-γGlu-C18 diacid])EFVQWL[Met(O2)]DT-NH2
modifications: N-terminus assumed
SMILES: CC(C)C[C@H](NC(=O)[C@H](Cc1ccc(O)cc1)NC(=O)[C@H](CCCCN)NC(=O)[C@H](CO)NC(=O)[C@H](Cc1ccc(O)cc1)NC(=O)[C@H](CC(=O)O)NC(=O)[C@H](CO)NC(=O)[C@@H](NC(=O)[C@H](Cc1ccccc1)NC(=O)[C@@H](NC(=O)CNC(=O)[C@H](CCC(N)=O)NC(=O)C(C)(C)NC(=O)[C@@H](N)Cc1c[nH]cn1)[C@@H](C)O)[C@@H](C)O)C(=O)N[C@@H](CC(=O)O)C(=O)N[C@@H](C)C(=O)N[C@@H](CCCNC(=N)N)C(=O)N[C@@H](C)C(=O)N[C@@H](C)C(=O)N[C@@H](CCCCNC(=O)COCCOCCNC(=O)COCCOCCNC(=O)CC[C@H](NC(=O)CCCCCCCCCCCCCCCCC(=O)O)C(=O)O)C(=O)N[C@@H](CCC(=O)O)C(=O)N[C@@H](Cc1ccccc1)C(=O)N[C@H](C(=O)N[C@@H](CCC(N)=O)C(=O)N[C@@H](Cc1c[nH]c2ccccc12)C(=O)N[C@@H](CC(C)C)C(=O)N[C@@H](CCS(C)(=O)=O)C(=O)N[C@@H](CC(=O)O)C(=O)N[C@H](C(N)=O)[C@@H](C)O)C(C)C
B4: TP705 (peptide)
peptide: H[Aib]QGTFTSDYSKYLDARAAK([AEEA-AEEA-γGlu-C18 diacid])DFVEWL[Met(O2)]KT-NH2
modifications: N-terminus assumed
SMILES: CC(C)C[C@H](NC(=O)[C@H](Cc1ccc(O)cc1)NC(=O)[C@H](CCCCN)NC(=O)[C@H](CO)NC(=O)[C@H](Cc1ccc(O)cc1)NC(=O)[C@H](CC(=O)O)NC(=O)[C@H](CO)NC(=O)[C@@H](NC(=O)[C@H](Cc1ccccc1)NC(=O)[C@@H](NC(=O)CNC(=O)[C@H](CCC(N)=O)NC(=O)C(C)(C)NC(=O)[C@@H](N)Cc1c[nH]cn1)[C@@H](C)O)[C@@H](C)O)C(=O)N[C@@H](CC(=O)O)C(=O)N[C@@H](C)C(=O)N[C@@H](CCCNC(=N)N)C(=O)N[C@@H](C)C(=O)N[C@@H](C)C(=O)N[C@@H](CCCCNC(=O)COCCOCCNC(=O)COCCOCCNC(=O)CC[C@H](NC(=O)CCCCCCCCCCCCCCCCC(=O)O)C(=O)O)C(=O)N[C@@H](CC(=O)O)C(=O)N[C@@H](Cc1ccccc1)C(=O)N[C@H](C(=O)N[C@@H](CCC(=O)O)C(=O)N[C@@H](Cc1c[nH]c2ccccc12)C(=O)N[C@@H](CC(C)C)C(=O)N[C@@H](CCS(C)(=O)=O)C(=O)N[C@@H](CCCCN)C(=O)N[C@H](C(N)=O)[C@@H](C)O)C(C)C
B5: TP713 (peptide)
peptide: H[Aib]QGTFTSDYSKYLDARAAK([AEEA-AEEA-γGlu-C18 diacid])EFVQWL[Met(O2)][αMeD]
modifications: not fully specified (C-terminus); printed as HUQGTFTSDYSKYLDARAAK(PEG2PEG2γEC18-OH)EFVQWL2αMDT-NH2
B6: TP735 (peptide)
peptide: H[Aib]QGTFTSDYSKYLDARAAK([AEEA-AEEA-γGlu-C18 diacid])DFVQWL[Met(O2)][αMeD]T-OH
modifications: N-terminus assumed
SMILES: CC(C)C[C@H](NC(=O)[C@H](Cc1ccc(O)cc1)NC(=O)[C@H](CCCCN)NC(=O)[C@H](CO)NC(=O)[C@H](Cc1ccc(O)cc1)NC(=O)[C@H](CC(=O)O)NC(=O)[C@H](CO)NC(=O)[C@@H](NC(=O)[C@H](Cc1ccccc1)NC(=O)[C@@H](NC(=O)CNC(=O)[C@H](CCC(N)=O)NC(=O)C(C)(C)NC(=O)[C@@H](N)Cc1c[nH]cn1)[C@@H](C)O)[C@@H](C)O)C(=O)N[C@@H](CC(=O)O)C(=O)N[C@@H](C)C(=O)N[C@@H](CCCNC(=N)N)C(=O)N[C@@H](C)C(=O)N[C@@H](C)C(=O)N[C@@H](CCCCNC(=O)COCCOCCNC(=O)COCCOCCNC(=O)CC[C@H](NC(=O)CCCCCCCCCCCCCCCCC(=O)O)C(=O)O)C(=O)N[C@@H](CC(=O)O)C(=O)N[C@@H](Cc1ccccc1)C(=O)N[C@H](C(=O)N[C@@H](CCC(N)=O)C(=O)N[C@@H](Cc1c[nH]c2ccccc12)C(=O)N[C@@H](CC(C)C)C(=O)N[C@@H](CCS(C)(=O)=O)C(=O)N[C@@](C)(CC(=O)O)C(=O)N[C@H](C(=O)O)[C@@H](C)O)C(C)C
B7: TP736 (peptide)
peptide: H[Aib]QGTFTSDYSKYLDARAAK([AEEA-AEEA-γGlu-C18 diacid])DFVQWL[Met(O2)]DT-OH
modifications: N-terminus assumed
SMILES: CC(C)C[C@H](NC(=O)[C@H](Cc1ccc(O)cc1)NC(=O)[C@H](CCCCN)NC(=O)[C@H](CO)NC(=O)[C@H](Cc1ccc(O)cc1)NC(=O)[C@H](CC(=O)O)NC(=O)[C@H](CO)NC(=O)[C@@H](NC(=O)[C@H](Cc1ccccc1)NC(=O)[C@@H](NC(=O)CNC(=O)[C@H](CCC(N)=O)NC(=O)C(C)(C)NC(=O)[C@@H](N)Cc1c[nH]cn1)[C@@H](C)O)[C@@H](C)O)C(=O)N[C@@H](CC(=O)O)C(=O)N[C@@H](C)C(=O)N[C@@H](CCCNC(=N)N)C(=O)N[C@@H](C)C(=O)N[C@@H](C)C(=O)N[C@@H](CCCCNC(=O)COCCOCCNC(=O)COCCOCCNC(=O)CC[C@H](NC(=O)CCCCCCCCCCCCCCCCC(=O)O)C(=O)O)C(=O)N[C@@H](CC(=O)O)C(=O)N[C@@H](Cc1ccccc1)C(=O)N[C@H](C(=O)N[C@@H](CCC(N)=O)C(=O)N[C@@H](Cc1c[nH]c2ccccc12)C(=O)N[C@@H](CC(C)C)C(=O)N[C@@H](CCS(C)(=O)=O)C(=O)N[C@@H](CC(=O)O)C(=O)N[C@H](C(=O)O)[C@@H](C)O)C(C)C
B8: TP737 (peptide)
peptide: H[Aib]QGTFTSDYSKYLD[Aib]RAAQDFVK([AEEA-AEEA-γGlu-C18 diacid])WL[Met(O2)]DT-OH
modifications: N-terminus assumed
SMILES: CC(C)C[C@H](NC(=O)[C@H](Cc1c[nH]c2ccccc12)NC(=O)[C@H](CCCCNC(=O)COCCOCCNC(=O)COCCOCCNC(=O)CC[C@H](NC(=O)CCCCCCCCCCCCCCCCC(=O)O)C(=O)O)NC(=O)[C@@H](NC(=O)[C@H](Cc1ccccc1)NC(=O)[C@H](CC(=O)O)NC(=O)[C@H](CCC(N)=O)NC(=O)[C@H](C)NC(=O)[C@H](C)NC(=O)[C@H](CCCNC(=N)N)NC(=O)C(C)(C)NC(=O)[C@H](CC(=O)O)NC(=O)[C@H](CC(C)C)NC(=O)[C@H](Cc1ccc(O)cc1)NC(=O)[C@H](CCCCN)NC(=O)[C@H](CO)NC(=O)[C@H](Cc1ccc(O)cc1)NC(=O)[C@H](CC(=O)O)NC(=O)[C@H](CO)NC(=O)[C@@H](NC(=O)[C@H](Cc1ccccc1)NC(=O)[C@@H](NC(=O)CNC(=O)[C@H](CCC(N)=O)NC(=O)C(C)(C)NC(=O)[C@@H](N)Cc1c[nH]cn1)[C@@H](C)O)[C@@H](C)O)C(C)C)C(=O)N[C@@H](CCS(C)(=O)=O)C(=O)N[C@@H](CC(=O)O)C(=O)N[C@H](C(=O)O)[C@@H](C)O

Each binder was assayed against human GLP-1 receptor (GLP1R) (human, UniProt P43220 24-463) (assay: cell-based or functional assay).

Binder	GLP1R EC50 human
B1	0.27 nM
B2	> 19.8 nM
B3	0.37 nM
B4	0.41 nM
H[Aib]QGTFTSDYSKYLDARAA[Nle]([1,2,3‑triazole‑5-AEEA-AEEA-γGlu-C18 diacid])DFVQWL[Met(O2)]DT-NH2 [TP712]	0.45 nM
B5	0.71 nM
B6	0.648 nM
B7	1.15 nM
B8	2.67 nM
H[Aib]QGTFTSDYSKYLD[Aib]RAAK([AEEA-AEEA-γGlu-C20‑OH])DFVQWL[Met(O2)][αMeD]T-NH2 [TP588]	2.92 nM

The binders below were run against human Glucagon receptor (GCGR) (human, UniProt P47871 26-477) (assay: cell-based or functional assay).
Chain of human Glucagon receptor (GCGR) (P47871 26-477): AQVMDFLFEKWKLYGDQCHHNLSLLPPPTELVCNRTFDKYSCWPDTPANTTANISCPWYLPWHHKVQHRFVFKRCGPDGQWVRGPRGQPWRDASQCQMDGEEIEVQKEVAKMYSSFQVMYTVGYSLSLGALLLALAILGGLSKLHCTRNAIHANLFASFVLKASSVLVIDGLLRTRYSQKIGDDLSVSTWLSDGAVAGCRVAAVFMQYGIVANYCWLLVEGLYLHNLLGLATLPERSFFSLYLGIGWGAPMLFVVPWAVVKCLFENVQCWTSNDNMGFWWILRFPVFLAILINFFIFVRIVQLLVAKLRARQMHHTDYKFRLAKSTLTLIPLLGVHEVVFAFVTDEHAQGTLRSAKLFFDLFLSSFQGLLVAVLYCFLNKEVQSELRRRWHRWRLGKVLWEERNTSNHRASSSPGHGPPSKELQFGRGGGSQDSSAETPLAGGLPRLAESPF

Binder	GCGR EC50 human
B1	0.35 nM
B2	> 19.8 nM
B3	0.27 nM
B4	1.48 nM
H[Aib]QGTFTSDYSKYLDARAA[Nle]([1,2,3‑triazole‑5-AEEA-AEEA-γGlu-C18 diacid])DFVQWL[Met(O2)]DT-NH2 [TP712]	0.25 nM
B5	1.52 nM
B6	0.895 nM
B7	3.19 nM
B8	1.56 nM
H[Aib]QGTFTSDYSKYLD[Aib]RAAK([AEEA-AEEA-γGlu-C20‑OH])DFVQWL[Met(O2)][αMeD]T-NH2 [TP588]	2.67 nM
